Data reported in publication PMC10950542 (Nature structural & molecular biology, 2024).
Like-named read-outs stand apart in the source and are kept apart here.

B1: T4 bacteriophage clamp-loader ATPase subunit gp44 (wild type) (natural protein)
chain: MITVNEKEHILEQKYRPSTIDECILPAFDKETFKSITSKGKIPHIILHSPSPGTGKTTVAKALCHDVNADMMFVNGSDCKIDFVRGPLTNFASAASFDGRQKVIVIDEFDRSGLAESQRHLRSFMEAYSSNCSIIITANNIDGIIKPLQSRCRVITFGQPTDEDKIEMMKQMIRRLTEICKHEGIAIADMKVVAALVKKNFPDFRKTIGELDSYSSKGVLDAGILSLVTNDRGAIDDVLESLKNKDVKQLRALAPKYAADYSWFVGKLAEEIYSRVTPQSIIRMYEIVGENNQYHGIAANTELHLAYLFIQLACEMQWK
B2: T4 bacteriophage clamp-loader ATPase subunit gp44 D110C (natural protein)
chain: MITVNEKEHILEQKYRPSTIDECILPAFDKETFKSITSKGKIPHIILHSPSPGTGKTTVAKALCHDVNADMMFVNGSDCKIDFVRGPLTNFASAASFDGRQKVIVIDEFCRSGLAESQRHLRSFMEAYSSNCSIIITANNIDGIIKPLQSRCRVITFGQPTDEDKIEMMKQMIRRLTEICKHEGIAIADMKVVAALVKKNFPDFRKTIGELDSYSSKGVLDAGILSLVTNDRGAIDDVLESLKNKDVKQLRALAPKYAADYSWFVGKLAEEIYSRVTPQSIIRMYEIVGENNQYHGIAANTELHLAYLFIQLACEMQWK
B4: T4 bacteriophage sliding clamp (gp45) (natural protein)
chain: MKLSKDTTALLKNFATINSGIMLKSGQFIMTRAVNGTTYAEANISDVIDFDVAIYDLNGFLGILSLVNDDAEISQSEDGNIKIADARSTIFWPAADPSTVVAPNKPIPFPVASAVTEIKAEDLQQLLRVSRGLQIDTIAITVKEGKIVINGFNKVEDSALTRVKYSLTLGDYDGENTFNFIINMANMKMQPGNYKLLLWAKGKQGAAKFEGEHANYVVALEADSTHDF

What was measured:
crystal structure [1] = target: the molecule itself; assay: crystal structure
crystal structure [2] = target: the molecule itself; assay: crystal structure; remark: listed apart in the source
[3] = target: B4; assay: cryo-EM structure
[4] = target: B2; assay: crystal structure
[5] = target: B1; assay: cryo-EM structure
[6] = target: T1, T4 clamp loader D110C/P50K (P50K*);T4 sliding clamp gp45 (bacteriophage T4;bacteriophage T4, UniProt P04526;P04527;P04525 1-319;1-187;1-228, P50K;D110C|); assay: fluorescence anisotropy
T1 sequence 1: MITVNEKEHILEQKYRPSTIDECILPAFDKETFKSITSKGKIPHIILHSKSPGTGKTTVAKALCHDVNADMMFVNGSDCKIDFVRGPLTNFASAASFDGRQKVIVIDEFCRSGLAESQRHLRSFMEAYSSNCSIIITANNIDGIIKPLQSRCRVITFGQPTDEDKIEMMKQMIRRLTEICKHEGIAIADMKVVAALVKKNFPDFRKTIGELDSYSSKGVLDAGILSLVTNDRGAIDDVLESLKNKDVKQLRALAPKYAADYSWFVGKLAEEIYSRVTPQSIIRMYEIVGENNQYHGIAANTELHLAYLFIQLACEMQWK
T1 sequence 2: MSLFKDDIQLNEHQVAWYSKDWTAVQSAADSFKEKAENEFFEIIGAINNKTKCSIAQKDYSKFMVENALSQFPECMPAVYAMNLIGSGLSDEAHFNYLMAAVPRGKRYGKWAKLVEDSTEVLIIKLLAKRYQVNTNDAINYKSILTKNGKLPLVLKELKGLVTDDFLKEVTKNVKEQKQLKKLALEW
T1 sequence 3: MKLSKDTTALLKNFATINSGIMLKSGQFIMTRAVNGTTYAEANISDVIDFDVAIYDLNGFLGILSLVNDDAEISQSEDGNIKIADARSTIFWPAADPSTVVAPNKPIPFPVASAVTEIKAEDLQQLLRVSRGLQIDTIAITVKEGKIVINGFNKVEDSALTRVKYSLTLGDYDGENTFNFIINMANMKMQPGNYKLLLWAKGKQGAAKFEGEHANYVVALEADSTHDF

[7] = target: T2, T4 clamp loader D110C/G143R;T4 sliding clamp gp45 (bacteriophage T4;bacteriophage T4, UniProt P04526;P04527;P04525 1-319;1-187;1-228, D110C;G143R|); assay: fluorescence anisotropy
T2 sequence 1: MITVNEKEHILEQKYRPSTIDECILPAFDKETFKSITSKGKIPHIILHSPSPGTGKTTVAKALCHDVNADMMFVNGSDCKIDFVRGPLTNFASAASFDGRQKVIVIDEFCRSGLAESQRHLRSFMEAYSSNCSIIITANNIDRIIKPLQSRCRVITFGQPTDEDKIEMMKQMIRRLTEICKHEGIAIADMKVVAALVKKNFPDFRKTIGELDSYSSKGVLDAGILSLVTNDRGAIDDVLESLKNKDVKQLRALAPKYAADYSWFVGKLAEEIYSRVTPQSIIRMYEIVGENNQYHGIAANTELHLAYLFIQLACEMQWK
T2 sequence 2: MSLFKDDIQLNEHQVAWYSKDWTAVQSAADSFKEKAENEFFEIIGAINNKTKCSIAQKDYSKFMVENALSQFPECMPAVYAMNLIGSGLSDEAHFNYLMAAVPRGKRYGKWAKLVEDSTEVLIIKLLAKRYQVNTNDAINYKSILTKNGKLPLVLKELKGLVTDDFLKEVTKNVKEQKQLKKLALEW
T2 sequence 3: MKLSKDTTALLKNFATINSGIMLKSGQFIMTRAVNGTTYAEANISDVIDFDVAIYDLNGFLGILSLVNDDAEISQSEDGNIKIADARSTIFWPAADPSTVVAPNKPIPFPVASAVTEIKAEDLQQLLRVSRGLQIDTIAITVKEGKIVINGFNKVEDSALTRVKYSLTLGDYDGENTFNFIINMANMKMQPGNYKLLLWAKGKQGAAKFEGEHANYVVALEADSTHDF

[8] = target: T3, T4 clamp loader (gp44/gp62), wild type;T4 sliding clamp gp45 (bacteriophage T4;bacteriophage T4, UniProt P04526;P04527;P04525 1-319;1-187;1-228, |); assay: fluorescence anisotropy
T3 sequence 1: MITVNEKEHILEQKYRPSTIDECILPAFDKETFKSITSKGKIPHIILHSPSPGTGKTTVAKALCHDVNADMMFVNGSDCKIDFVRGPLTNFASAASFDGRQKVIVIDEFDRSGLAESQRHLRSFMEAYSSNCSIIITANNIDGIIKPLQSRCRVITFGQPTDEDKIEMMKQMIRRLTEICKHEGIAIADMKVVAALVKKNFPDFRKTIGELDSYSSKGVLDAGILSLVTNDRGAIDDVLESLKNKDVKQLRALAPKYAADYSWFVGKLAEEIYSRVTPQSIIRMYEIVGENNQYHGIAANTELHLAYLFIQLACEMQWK
T3 sequence 2: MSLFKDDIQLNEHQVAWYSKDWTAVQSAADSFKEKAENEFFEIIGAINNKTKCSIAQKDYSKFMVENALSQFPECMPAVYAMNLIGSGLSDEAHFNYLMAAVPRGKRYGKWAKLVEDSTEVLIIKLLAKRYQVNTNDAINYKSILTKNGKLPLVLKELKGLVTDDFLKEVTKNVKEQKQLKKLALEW
T3 sequence 3: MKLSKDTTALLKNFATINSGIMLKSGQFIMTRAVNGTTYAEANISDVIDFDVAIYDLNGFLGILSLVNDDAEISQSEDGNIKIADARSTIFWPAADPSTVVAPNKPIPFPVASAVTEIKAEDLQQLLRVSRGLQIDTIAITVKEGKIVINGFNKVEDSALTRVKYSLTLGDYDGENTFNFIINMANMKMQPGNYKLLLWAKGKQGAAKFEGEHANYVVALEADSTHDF

## B1
Crystal structure [1]
  binding result: binds

## B2
Crystal structure [2]
  binding result: binds

B3: T4 bacteriophage clamp-loader clasp subunit gp62 (natural protein)
chain: MSLFKDDIQLNEHQVAWYSKDWTAVQSAADSFKEKAENEFFEIIGAINNKTKCSIAQKDYSKFMVENALSQFPECMPAVYAMNLIGSGLSDEAHFNYLMAAVPRGKRYGKWAKLVEDSTEVLIIKLLAKRYQVNTNDAINYKSILTKNGKLPLVLKELKGLVTDDFLKEVTKNVKEQKQLKKLALEW
[3]
  binding result: binds
[4]
  binding result: binds
[5]
  binding result: binds

## B4
Crystal structure [2]
  binding result: binds

B5: TAMRA primer-template DNA (dsDNA)
DNA 1: TTTTTTTTTTTTATGTACTCGTAGTGTCTG
DNA 2: GCAGACACTACGAGTACATA
[6]
  binding result: binds
[7]
  binding result: binds
[8]
  Kd: ~40 nM
